Assay [1] concerns the target KJ1-26 clonotypic antibody.
Assay [2] deals with OVA/I-Ad on murine A20 antigen presenting cells pulsed with OVA323-339 peptide (hen; mouse) (UniProt P01012).

Among the data in patent US20220144916A1 are EC50 (read off the curve) and Half-life values, retold here.

A word on the EC50 (read off the curve): it is the midpoint of the concentration-response curve. High values mean lower potency in that assay, low ones higher potency in that assay. For “DO11.10 scTCR-Fc fusion protein (Vβ-linker-Vα format)”, the EC50 (read off the curve) in assay [1] was 0.03 nM. In assay [2], this substance displayed a Half-life of 5.5 min.
